From publication PMC9578707, “Identification of orphan ligand-receptor relationships using a cell-based CRISPRa enrichment screening platform” (eLife, 2022)

Columns and labels:
[1] = target: ROR1 and MFRP; assay: SPR; Biacore T100; biotinylated receptor ECD or hit protein captured on a streptavidin chip (~100-200 RU), non-biotinylated secreted ligand as analyte in twofold dilutions; HBS-P+ buffer; 1:1 Langmuir model or equilibrium fit
[2] = target: T1, MFRP-ECD (human, UniProt Q9BY79 91-579, biotin (captured on the streptavidin chip)); assay: as above; conditions: both partners purified
T1 construct: membrane Frizzled-related protein, human, extracellular domain; construct of the ECD is not described; also called membrane Frizzled (FZD)-related protein; source: Expi293F, purified (Ni-NTA, SEC)
T1 sequence (looked up): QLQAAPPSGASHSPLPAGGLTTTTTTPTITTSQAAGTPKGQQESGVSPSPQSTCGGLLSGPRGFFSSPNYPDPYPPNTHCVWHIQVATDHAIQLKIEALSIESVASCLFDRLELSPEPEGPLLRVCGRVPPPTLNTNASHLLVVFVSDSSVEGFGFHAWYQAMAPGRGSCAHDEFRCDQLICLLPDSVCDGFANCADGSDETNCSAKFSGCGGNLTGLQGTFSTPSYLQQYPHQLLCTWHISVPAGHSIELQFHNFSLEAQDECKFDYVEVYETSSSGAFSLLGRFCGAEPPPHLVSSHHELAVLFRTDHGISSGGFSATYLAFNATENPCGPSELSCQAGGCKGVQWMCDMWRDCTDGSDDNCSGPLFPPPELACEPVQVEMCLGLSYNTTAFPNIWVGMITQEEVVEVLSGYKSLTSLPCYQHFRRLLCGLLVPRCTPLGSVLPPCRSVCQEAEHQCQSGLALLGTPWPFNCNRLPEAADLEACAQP

[3] = target: T2, ROR1-ECD (human, UniProt Q01973 30-406, biotin (captured on the streptavidin chip)); assay: as above; conditions: both partners purified
T2 construct: ROR1, human, extracellular domain; construct of the ECD is not described; source: Expi293F, purified (Ni-NTA, SEC)

[4] = target: the molecule itself; assay: as above
[5] = target: T3, MFRP-ECD (membrane Frizzled-related protein, extracellular domain) (human, UniProt Q9BY79 91-579, biotin (BirA biotinylation; captured on streptavidin chip)); assay: SPR; Biacore T100; biotinylated ligand captured on a streptavidin (SA) Series S chip (~100-200 RU); non-biotinylated analyte in twofold dilutions in HBS-P+; 60 s injection at 30 ul/min, 240 s dissociation; regeneration 2 x 10 sec 2M MgCl2; KD from the fit at equilibrium (steady state); conditions: both partners purified
T3 construct: membrane Frizzled-related protein (MFRP), human, extracellular domain; source: Expi293F, purified (Ni-NTA, SEC), biotinylated in vitro with BirA
T3 sequence (looked up): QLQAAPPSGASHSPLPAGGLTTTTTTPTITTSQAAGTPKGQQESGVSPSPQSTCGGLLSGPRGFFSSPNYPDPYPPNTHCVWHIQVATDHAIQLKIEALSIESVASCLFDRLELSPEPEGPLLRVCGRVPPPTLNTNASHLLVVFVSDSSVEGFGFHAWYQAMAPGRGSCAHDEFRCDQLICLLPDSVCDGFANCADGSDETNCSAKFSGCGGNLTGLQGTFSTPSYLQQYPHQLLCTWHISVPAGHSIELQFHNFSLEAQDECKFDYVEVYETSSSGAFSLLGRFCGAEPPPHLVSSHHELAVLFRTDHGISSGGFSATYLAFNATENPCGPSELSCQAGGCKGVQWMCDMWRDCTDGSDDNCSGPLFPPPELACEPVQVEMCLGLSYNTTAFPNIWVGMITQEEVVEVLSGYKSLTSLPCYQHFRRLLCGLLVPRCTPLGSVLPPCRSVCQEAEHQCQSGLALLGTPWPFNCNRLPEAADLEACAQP

[6] = target: T4, ROR1-ECD (transmembrane receptor tyrosine kinase ROR1, extracellular domain) (human, UniProt Q01973 30-406, biotin (BirA biotinylation; captured on streptavidin chip)); assay: as above; conditions: both partners purified
T4 construct: receptor tyrosine kinase ROR1, human, extracellular domain; source: Expi293F, purified (Ni-NTA, SEC), biotinylated in vitro with BirA

[7] = target: T5, growth arrest specific 1 protein (GAS1) (human, UniProt P54826 40-317); assay: as above; conditions: both partners purified
T5 construct: growth arrest specific 1 (GAS1), human; source: Expi293F, purified (Ni-NTA, SEC), not biotinylated (SPR analyte)
T5 sequence (looked up): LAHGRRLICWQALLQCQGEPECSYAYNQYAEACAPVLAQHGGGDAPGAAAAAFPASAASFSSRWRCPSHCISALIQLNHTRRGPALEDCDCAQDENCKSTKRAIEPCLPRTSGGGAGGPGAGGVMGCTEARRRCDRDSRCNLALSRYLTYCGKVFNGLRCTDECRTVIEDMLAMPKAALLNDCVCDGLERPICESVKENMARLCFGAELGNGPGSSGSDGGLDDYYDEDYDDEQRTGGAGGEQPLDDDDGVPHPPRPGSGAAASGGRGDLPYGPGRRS

B1: pleiotrophin (ligand, human, UniProt P21246 33-168, looked up)
chain: GKKEKPEKKVKKSDCGEWQWSVCVPTSGDCGLGTREGTRTGAECKQTMKTQRCKIPCNWKKQFGAECKYQFQAWGECDLNTALKTRTGSLKRALHNAECQKTVTISKPCGKLTKPKPQAESKKKKKEGKKQEKMLD
modifications: biotin (biotinylated in vitro with BirA) where used on beads or captured on the chip
notes: pleiotrophin, human; also called PTN; source: Expi293F, purified (Ni-NTA, SEC); not shown: AviTag, C-terminal, kept
Kd [1]: 1000 to 2000 nM | binding result [2]: binds | binding result [3]: binds

B2: SMOC1 (ligand, human, UniProt Q9H4F8 27-434, looked up)
chain: HRTTGPRFLISDRDPQCNLHCSRTQPKPICASDGRSYESMCEYQRAKCRDPTLGVVHRGRCKDAGQSKCRLERAQALEQAKKPQEAVFVPECGEDGSFTQVQCHTYTGYCWCVTPDGKPISGSSVQNKTPVCSGSVTDKPLSQGNSGRKDDGSKPTPTMETQPVFDGDEITAPTLWIKHLVIKDSKLNNTNIRNSEKVYSCDQERQSALEEAQQNPREGIVIPECAPGGLYKPVQCHQSTGYCWCVLVDTGRPLPGTSTRYVMPSCESDARAKTTEADDPFKDRELPGCPEGKKMEFITSLLDALTTDMVQAINSAAPTGGGRFSEPDPSHTLEERVVHWYFSQLDSNSSNDINKREMKPFKRYVKKKAKPKKCARRFTDYCDLNKDKVISLPELKGCLGVSKEGRLV
modifications: biotin (biotinylated in vitro with BirA) where used on beads or captured on the chip
notes: SMOC1, human; also called SPARC-related ligand; source: Expi293F, purified (Ni-NTA, SEC); not shown: AviTag, C-terminal, kept
binding result [4]: binds

B3: pleiotrophin (PTN) (ligand, human, UniProt P21246 33-168, looked up)
chain: GKKEKPEKKVKKSDCGEWQWSVCVPTSGDCGLGTREGTRTGAECKQTMKTQRCKIPCNWKKQFGAECKYQFQAWGECDLNTALKTRTGSLKRALHNAECQKTVTISKPCGKLTKPKPQAESKKKKKEGKKQEKMLD
notes: pleiotrophin (PTN), human; source: Expi293F, purified (Ni-NTA, SEC), not biotinylated (SPR analyte)
Kd [5]: 1220 nM | Kd [6]: 1660 nM

B4: PTPRA-ECD (receptor protein tyrosine phosphatase alpha, extracellular domain) (domain or fragment, human, UniProt P18433 20-151, looked up)
chain: NNATTVAPSVGITRLINSSTAEPVKEEAKTSNPTSSLTSLSVAPTFSPNITLGPTYLTTVNSSDSDNGTTRTASTNSIGITISPNGTWLPDNQFTDARTEPWEGNSSTAATTPETFPPSGNSDSKDRRDETP
modifications: biotin (BirA biotinylation; captured on streptavidin chip)
notes: receptor-type protein tyrosine phosphatase alpha (PTPRA, R4 subfamily), human, extracellular domain; source: Expi293F, purified (Ni-NTA, SEC), biotinylated in vitro with BirA
Kd [7]: 1130 nM
